Experimental data reported in patent US20100260765A1 (AstraZeneca / MedImmune, published 2010).

Key:
[1] = molecular target: T1, soluble KDR extracellular domain (ECD) (Calbiochem) (human, UniProt P35968 20-764); experiment: Limited Antigen ELISA, KDR coat 3.125 ng/mL, supernatant 1:25
T1 construct: extracellular domain; Bought protein; also called KDR-ECD; VEGF Receptor 2 D1-7, Cat. #676490
Procedure: (§1) Samples containing one concentration of antibody (Ab) (1:25 dilution) were incubated overnight to allow Ab binding to approach equilibrium. The low antigen concentration limited the effect of antibody concentration, allowing ranking of the antibodies based on their relative affinity.

[2] = molecular target: T1, soluble KDR extracellular domain (ECD) …; experiment: High Antigen ELISA, KDR coat 500 ng/mL, supernatant 1:75
[3] = molecular target: T1, soluble KDR extracellular domain (ECD) …; experiment: High Antigen ELISA, KDR coat 500 ng/mL, supernatant 1:675
[4] = molecular target: KDR endogenously expressed on human umbilical vein endothelial cells (HUVEC) (human, UniProt P35968 20-1356); experiment: cell-based or functional assay
[5] = molecular target: T1, soluble KDR extracellular domain (ECD) …; experiment: High Antigen ELISA, KDR coat 500 ng/mL, supernatant 1:25
[6] = molecular target: T1, soluble KDR extracellular domain (ECD) …; experiment: Limited Antigen ELISA, KDR coat 50 ng/mL, supernatant 1:25
Procedure: as §1

[7] = molecular target: T1, soluble KDR extracellular domain (ECD) …; experiment: Limited Antigen ELISA, KDR coat 12.5 ng/mL, supernatant 1:25
Procedure: as §1

[8] = molecular target: T1, soluble KDR extracellular domain (ECD) …; experiment: High Antigen ELISA, KDR coat 500 ng/mL, supernatant 1:225
[9] = molecular target: T1, soluble KDR extracellular domain (ECD) …; experiment: Limited Antigen ELISA, KDR coat 25 ng/mL, supernatant 1:25
Procedure: as §1

[10] = molecular target: T1, soluble KDR extracellular domain (ECD) …; experiment: High Antigen ELISA, KDR coat 500 ng/mL, supernatant 1:2025
[11] = molecular target: T1, soluble KDR extracellular domain (ECD) …; experiment: High Antigen ELISA, KDR coat 500 ng/mL, supernatant 1:18,225
[12] = molecular target: T1, soluble KDR extracellular domain (ECD) …; experiment: High Antigen ELISA, KDR coat 500 ng/mL, supernatant 1:6075
[13] = molecular target: T1, soluble KDR extracellular domain (ECD) …; experiment: Limited Antigen ELISA, KDR coat 6.25 ng/mL, supernatant 1:25
Procedure: as §1

[14] = molecular target: T2, human KDR (VEGFR2) on cells (human, UniProt P35968 20-1356); experiment: cell-based or functional assay
[15] = molecular target: T2, human KDR (VEGFR2) on cells; experiment: FACS on HUVEC, hybridoma supernatant 1:50
Procedure: HUVECs were seeded at 15,000 cells/well and incubated with 100 μL of sample supernatant (at 1:50 dilution) for one hour at 4° C. The positive control was goat anti-KDR antibody (R&D Systems, Inc.), and negative controls included irrelevant hybridoma supernatants at the same dilution. The cells were then washed and incubated with Cy5-conjugated goat anti-human antibody at 5 μg/mL and 7-Amino-Actinomycin D (7AAD) at 5 μg/mL for 15 minutes at 4° C. Bound KDR was detected using FACS analysis.

[16] = molecular target: T2, human KDR (VEGFR2) on cells; experiment: cell-based or functional assay; remark: listed apart in the source
[17] = molecular target: T3, soluble KDR (VEGF Receptor 2 D1-7, Cat. #676490, Calbiochem) (human, UniProt P35968 20-764); experiment: ELISA, plate-coated soluble KDR 250 ng/mL, hybridoma supernatant 1:5
T3 construct: extracellular domain; Bought reagent; also called soluble human KDR; immobilized soluble KDR
Procedure: To screen by binding to immobilized soluble KDR, plates were coated with KDR (Calbiochem) at 250 ng/mL overnight at 4° C. After blocking and washing the coated plates, the candidate hybridoma supernatants (at 1:5 dilution) were transferred to the plates and incubated for one hour at room temperature. The plates were then washed and incubated with secondary antibody (at 1:4000 dilution) for one hour at room temperature.

[18] = molecular target: T2, human KDR (VEGFR2) on cells; experiment: cell-based or functional assay; remark: listed apart in the source

T3 sequence (P35968 20-764): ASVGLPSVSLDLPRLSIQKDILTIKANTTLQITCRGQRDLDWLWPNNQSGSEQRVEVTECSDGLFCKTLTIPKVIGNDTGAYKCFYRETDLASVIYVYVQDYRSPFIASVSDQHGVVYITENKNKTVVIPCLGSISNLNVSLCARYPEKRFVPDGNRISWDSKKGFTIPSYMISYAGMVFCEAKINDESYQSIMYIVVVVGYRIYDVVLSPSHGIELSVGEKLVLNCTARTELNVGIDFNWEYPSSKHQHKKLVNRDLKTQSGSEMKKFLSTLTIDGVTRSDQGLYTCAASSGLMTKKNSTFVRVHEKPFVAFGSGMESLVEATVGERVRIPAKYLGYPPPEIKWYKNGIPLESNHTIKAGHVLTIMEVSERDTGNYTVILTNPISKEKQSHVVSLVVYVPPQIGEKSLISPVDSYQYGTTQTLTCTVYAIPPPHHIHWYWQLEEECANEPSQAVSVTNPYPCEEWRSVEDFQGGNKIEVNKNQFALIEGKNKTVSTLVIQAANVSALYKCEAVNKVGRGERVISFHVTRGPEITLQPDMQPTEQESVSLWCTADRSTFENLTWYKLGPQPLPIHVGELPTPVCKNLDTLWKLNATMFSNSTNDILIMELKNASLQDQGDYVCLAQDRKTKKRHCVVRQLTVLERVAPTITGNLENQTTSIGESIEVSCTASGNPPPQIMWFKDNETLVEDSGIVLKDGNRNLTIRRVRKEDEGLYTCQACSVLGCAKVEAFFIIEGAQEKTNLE
T1 sequence (P35968 20-764): as above
T2 sequence (P35968 20-1356): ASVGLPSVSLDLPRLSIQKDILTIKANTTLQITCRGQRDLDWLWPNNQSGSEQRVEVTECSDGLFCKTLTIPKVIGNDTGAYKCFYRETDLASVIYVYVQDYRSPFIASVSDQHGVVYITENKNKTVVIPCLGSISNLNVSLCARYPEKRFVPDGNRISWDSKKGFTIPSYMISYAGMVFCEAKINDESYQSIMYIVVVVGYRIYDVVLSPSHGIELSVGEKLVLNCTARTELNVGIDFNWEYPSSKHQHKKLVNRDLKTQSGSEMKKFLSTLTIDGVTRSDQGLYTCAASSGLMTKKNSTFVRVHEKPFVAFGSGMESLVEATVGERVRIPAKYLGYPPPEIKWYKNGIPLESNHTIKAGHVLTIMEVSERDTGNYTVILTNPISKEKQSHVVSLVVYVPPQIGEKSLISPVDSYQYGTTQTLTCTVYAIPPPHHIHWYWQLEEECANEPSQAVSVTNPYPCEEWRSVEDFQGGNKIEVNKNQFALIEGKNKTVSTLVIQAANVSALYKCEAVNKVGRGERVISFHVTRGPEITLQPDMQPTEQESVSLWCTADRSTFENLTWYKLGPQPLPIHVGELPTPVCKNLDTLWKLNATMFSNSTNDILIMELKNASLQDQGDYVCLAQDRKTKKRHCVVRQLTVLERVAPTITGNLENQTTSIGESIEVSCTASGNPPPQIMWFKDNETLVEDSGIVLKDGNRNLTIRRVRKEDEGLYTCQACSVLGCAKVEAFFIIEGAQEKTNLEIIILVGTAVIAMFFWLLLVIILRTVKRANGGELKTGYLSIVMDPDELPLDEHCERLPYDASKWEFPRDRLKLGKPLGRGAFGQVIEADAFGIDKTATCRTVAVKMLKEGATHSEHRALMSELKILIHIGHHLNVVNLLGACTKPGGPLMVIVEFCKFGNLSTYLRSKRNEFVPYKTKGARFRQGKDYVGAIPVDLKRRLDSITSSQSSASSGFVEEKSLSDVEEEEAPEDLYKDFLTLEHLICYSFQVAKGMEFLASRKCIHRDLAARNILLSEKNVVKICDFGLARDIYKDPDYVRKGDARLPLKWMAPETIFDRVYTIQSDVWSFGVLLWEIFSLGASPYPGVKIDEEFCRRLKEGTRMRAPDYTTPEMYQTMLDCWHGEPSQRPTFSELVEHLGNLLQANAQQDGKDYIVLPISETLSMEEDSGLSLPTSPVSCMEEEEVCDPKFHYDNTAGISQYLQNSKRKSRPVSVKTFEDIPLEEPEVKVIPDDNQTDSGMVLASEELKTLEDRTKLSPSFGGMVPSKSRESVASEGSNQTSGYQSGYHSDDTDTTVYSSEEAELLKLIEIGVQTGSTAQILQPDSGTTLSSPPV
Chain of KDR endogenously expressed on human umbilical vein endothelial cells (HUVEC) (P35968 20-1356): as above

Binder	HUVEC survival (n = 1) 1:10 dilution of supernatant (RLU) [14]	HUVEC survival (n = 2) 1:20 dilution of supernatant (RLU) [14]	FACS Geometric Mean [15]	% Inhibition of VEGF165-mediated pTyr Activity, Average [16]	% Inhibition of VEGF165-mediated pTyr Activity, n = 1 [16]	% Inhibition of VEGF165-mediated pTyr Activity, n = 2 [16]	% Inhibition of VEGF165-mediated pTyr Activity, n = 3 [16]	KDR OD(450 nm) [17]	% Inhibition of VEGF-E-mediated pTyr Activity [18]	also measured
33C3 (antibody, V domains shown, Fully human mAb from XenoMouse hybridoma, tested as hybridoma supernatant) VH: QVQLVESGGGLVKPGESLRLSCAASGFTFSDYYMSWIRQAPGKGLEWVSYISHGGSTIYYADSVKGRFTISRDNAKNSLYLQMNSLRVEDTAVYFCARDDFWSGYYFNWFDPWGQGALVTVSS VL: DIQMTQYPLSLSASVGDRVTITCRASQSISSFLNWYHQKPGKAPKLLIYGTSSLQSGVPSRFSGSGSGTDFTLTISSLQPEDFATYYCQQTYSIPLTFGGGTNVEIK										ELISA reading [1]: 0.2; ELISA reading [2]: 4.96; ELISA reading [3]: 2.55; VEGF-E-mediated Survival % Inhibition (Average) [4]: 74%; VEGF-E-mediated Survival % Inhibition (n = 1) [4]: 78%; VEGF-E-mediated Survival % Inhibition (n = 2) [4]: 69%; ELISA reading [5]: 4.96; ELISA reading [6]: 3; ELISA reading [7]: 0.72; ELISA reading [8]: 4.31; ELISA reading [9]: 1.32; ELISA reading [10]: 0.84; ELISA reading [11]: 0.18; ELISA reading [12]: 0.31; ELISA reading [13]: 0.37
33E1 (antibody, V domains shown, Fully human mAb from XenoMouse hybridoma, tested as hybridoma supernatant) VH: QVQLQESGPGLVKPSQTLSLTCTVSGGSISSGDHYWSWIRQHPGKGLEWIGHIYYSGSTDYNPSLKSRVTISVDTSKNHFSLKLNSVTAADTAVYYCARTNSSSWSDWYFDLWGRGTLVTVSS VL: DIVMTQSPDSLAVSLGERATINCKSSQSILYSSNNKNYLAWYQRKPGQPPILLIHWASTRESGVPDRFSGSGSRTDFTLTISSLQAEDVAVYYCQQYFITPWTFGQGTKVEIK										ELISA reading [1]: 0.07; ELISA reading [2]: 4.24; ELISA reading [3]: 3.51; VEGF-E-mediated Survival % Inhibition (Average) [4]: 60%; VEGF-E-mediated Survival % Inhibition (n = 1) [4]: 66%; VEGF-E-mediated Survival % Inhibition (n = 2) [4]: 54%; ELISA reading [5]: 4.06; ELISA reading [6]: 0.85; ELISA reading [7]: 0.15; ELISA reading [8]: 4.07; ELISA reading [9]: 0.36; ELISA reading [10]: 2.09; ELISA reading [11]: 0.49; ELISA reading [12]: 0.98; ELISA reading [13]: 0.11
anti-KDR monoclonal antibody 33D5 (antibody, V domains shown, Fully human mAb from XenoMouse (IgG2 or IgG4 strain); hybridoma supernatant) VH: QVQLVQSGAEVKKPGASVKVSCKASGYTFGSYDINWVRQATGQGLEWMGWMNPNSGNTGYAQKFQGRVTLTRNTSIRTVYMELSSLRSEDTAVYYCARGGYSNLGWFDPWGQGSLVTVSS VL: DIQMTQSPSSVSVSVGDRVTITCRASQGISSWLAWYQQKPGKAPKLLIYAASSLQSGVPSRFSGSGSGTDFTLTISSLQPEDFATYYCQQANSFPFTFGPGTKVDIK	43400 RLU	706 RLU	24	77%	95%	72%	63%	3.59 OD450	30%	
anti-KDR monoclonal antibody 32B2 (antibody, V domains shown, Fully human mAb from XenoMouse (IgG2 or IgG4 strain); hybridoma supernatant) VH: EVQLLESGGGLVQPGGSLRLSCAASGFTFSNYAMSWVRQAPGKGLDWVSAISGRGGSTYYADSVKGRFTISRDNSKNTLFLLMNSLRAEDTAVYYCAKASGDDWGQGTLVTVSS VL: not shown	19300 RLU	400 RLU	26	77%	91%	75%	66%	1.11 OD450	15%	
anti-KDR monoclonal antibody 29A11 (antibody, V domains shown, Fully human mAb from XenoMouse (IgG2 or IgG4 strain); hybridoma supernatant) VH: EVQLLESGGGLVQPGGSLRLSCAASGFTFSNYAMNWVRQAPGKGLEWVSAISGGGGNTYYADSVKGRFTISRDNSKNTLYLQMNRLRAEDTAVYYCAKASGDDWGQGTLVTVSS VL: not shown	34600 RLU	27700 RLU	31	78%	96%	72%	66%	3.53 OD450	15%	
anti-KDR monoclonal antibody 30E3 (antibody, V domains shown, Fully human mAb from XenoMouse (IgG2 or IgG4 strain); hybridoma supernatant; also called 30E3.1; 30E3.2) VH: EVQLLESGGGLVQPGGSLRLSCAASGFTFSNYALSWVRQAPGKGLEWVSAISGSGRNTYYADSVKGRFTLSRDNSKNTLFLQMNSLRAEDTAVYYCAKASGDNWGQGTLVTVSS VL: not shown	37500 RLU	30400 RLU	36	71%	89%	67%	58%	4.18 OD450	19%	
anti-KDR monoclonal antibody 29A3 (antibody, V domains shown, Fully human mAb from XenoMouse (IgG2 or IgG4 strain); hybridoma supernatant) VH: QVQLQESGPGLVKPSETLSLTCTVSGGSISSYFWSWIRQPAGKGLEWIGRIYFSGRTNYNPSLKSRVTMSVETSKNQFSLKLNSVTAADTAVYYCARDGGWNYDVAFDYWGQGTLVTVSS VL: QAVLTQPSSLSASPGASASLTCTLRSGINVGTYRIYWYQQKPGSPPQYLLRYKSDSDQLQGSGVPSRFSGSKDASANAGILLISGLQSEDEADYYCMVWHSNTWVFGGGTKLTVL	36400 RLU	2450 RLU	30	77%	92%	66%	72%	0.814 OD450	22%	
anti-KDR monoclonal antibody 30D7 (antibody, V domains shown, Fully human mAb from XenoMouse (IgG2 or IgG4 strain); hybridoma supernatant) VH: QVPLVESGGGVVQPGRSLRLSCAASGFTFSSYGMHWVRQAPGKGLEWVAVIWYDGSNKYYADSVKGRFTISRDNSKNTLYLQMNSLRAEDTAVYYCARGVTMVRGVIIARYYYGLDVWGQGTTVTVSS VL: DIVMTQTPLSSPVTLGQPASISCRSSQSLVHSDGNTYLSWLQQRPGQPPRLLIYKISNRFFGVPDRFSGSGAGTDFTLKIGRVEAEDVGLYYCMQSTQFPLTFGGGTKVEIK	28300 RLU	2520 RLU	31	76%	99%	71%	59%	3.45 OD450	24%	
